According to article PMC3010429:

Biological target: hMutSα (hMSH2-hMSH6) WT recombinant (Homo sapiens, UniProt P43246;P52701 1-934;1-1360)
Test: EMSA, supershift

hMutSα (hMSH2-hMSH6) WT recombinant, sequence (P43246 whole entry, chain 1 of 2): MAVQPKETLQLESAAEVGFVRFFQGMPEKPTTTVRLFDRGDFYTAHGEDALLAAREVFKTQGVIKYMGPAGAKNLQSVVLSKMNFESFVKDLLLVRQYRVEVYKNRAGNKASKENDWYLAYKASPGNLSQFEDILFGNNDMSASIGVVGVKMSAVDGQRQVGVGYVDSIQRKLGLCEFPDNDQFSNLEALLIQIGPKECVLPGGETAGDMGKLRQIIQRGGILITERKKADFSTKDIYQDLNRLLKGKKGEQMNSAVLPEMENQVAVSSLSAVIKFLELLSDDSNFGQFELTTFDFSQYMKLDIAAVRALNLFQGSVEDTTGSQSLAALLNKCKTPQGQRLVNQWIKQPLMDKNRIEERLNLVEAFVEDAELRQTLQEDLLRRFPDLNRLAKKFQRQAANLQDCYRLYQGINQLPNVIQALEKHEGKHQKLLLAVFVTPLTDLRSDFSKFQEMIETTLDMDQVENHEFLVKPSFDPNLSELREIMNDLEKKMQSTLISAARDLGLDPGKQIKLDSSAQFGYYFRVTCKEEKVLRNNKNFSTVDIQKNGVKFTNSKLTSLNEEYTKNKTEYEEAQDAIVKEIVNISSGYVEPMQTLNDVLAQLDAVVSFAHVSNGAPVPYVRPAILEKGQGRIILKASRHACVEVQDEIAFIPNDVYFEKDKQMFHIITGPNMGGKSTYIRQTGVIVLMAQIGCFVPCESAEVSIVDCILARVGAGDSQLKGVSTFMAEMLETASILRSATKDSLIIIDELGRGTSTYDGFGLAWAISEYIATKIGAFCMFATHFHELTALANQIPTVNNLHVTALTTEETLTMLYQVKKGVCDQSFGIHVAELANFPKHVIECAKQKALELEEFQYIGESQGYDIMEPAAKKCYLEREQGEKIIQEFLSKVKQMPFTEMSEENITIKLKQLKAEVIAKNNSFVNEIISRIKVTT
hMutSα (hMSH2-hMSH6) WT recombinant, sequence (P52701 whole entry, chain 2 of 2): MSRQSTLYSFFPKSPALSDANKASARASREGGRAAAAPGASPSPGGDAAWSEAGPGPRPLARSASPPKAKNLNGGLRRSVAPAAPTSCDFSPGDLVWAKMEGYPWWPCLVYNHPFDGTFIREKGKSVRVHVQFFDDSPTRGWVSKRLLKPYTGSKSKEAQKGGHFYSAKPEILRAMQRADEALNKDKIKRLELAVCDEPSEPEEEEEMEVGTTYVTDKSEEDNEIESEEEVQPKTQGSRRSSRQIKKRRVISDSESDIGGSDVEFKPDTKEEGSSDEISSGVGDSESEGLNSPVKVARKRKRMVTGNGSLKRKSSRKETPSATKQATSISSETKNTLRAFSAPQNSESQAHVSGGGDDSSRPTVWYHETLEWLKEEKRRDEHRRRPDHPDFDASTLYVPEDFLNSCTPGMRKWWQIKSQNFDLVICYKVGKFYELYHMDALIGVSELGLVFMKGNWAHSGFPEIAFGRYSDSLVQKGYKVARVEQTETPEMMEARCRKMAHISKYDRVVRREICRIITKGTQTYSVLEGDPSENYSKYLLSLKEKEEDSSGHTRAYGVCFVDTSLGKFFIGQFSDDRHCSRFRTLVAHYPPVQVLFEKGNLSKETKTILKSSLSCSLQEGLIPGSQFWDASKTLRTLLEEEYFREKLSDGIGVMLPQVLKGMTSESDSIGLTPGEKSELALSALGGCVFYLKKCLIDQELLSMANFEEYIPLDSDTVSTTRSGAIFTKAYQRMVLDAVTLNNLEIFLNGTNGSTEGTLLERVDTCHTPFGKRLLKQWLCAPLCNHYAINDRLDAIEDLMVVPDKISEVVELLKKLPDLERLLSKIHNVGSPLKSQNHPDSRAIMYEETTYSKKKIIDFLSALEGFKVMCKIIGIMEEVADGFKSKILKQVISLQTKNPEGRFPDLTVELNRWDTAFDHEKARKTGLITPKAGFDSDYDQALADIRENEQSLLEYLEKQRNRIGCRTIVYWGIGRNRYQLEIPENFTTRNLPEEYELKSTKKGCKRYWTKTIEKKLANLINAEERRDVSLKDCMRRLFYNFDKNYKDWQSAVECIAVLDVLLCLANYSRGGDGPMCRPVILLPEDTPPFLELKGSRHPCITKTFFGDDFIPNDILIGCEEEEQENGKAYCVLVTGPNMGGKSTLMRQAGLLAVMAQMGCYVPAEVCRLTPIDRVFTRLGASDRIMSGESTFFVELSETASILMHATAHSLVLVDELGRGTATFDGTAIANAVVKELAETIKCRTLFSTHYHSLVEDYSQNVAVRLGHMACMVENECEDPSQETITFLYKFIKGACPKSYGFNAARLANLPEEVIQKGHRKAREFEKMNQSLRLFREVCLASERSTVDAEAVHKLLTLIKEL

B1: G:T 69mer (dsDNA)
DNA 1: AATTCACGGAATATAAGCTGGTGGTGGTGGGCGCCGGCGGTTGGGCAAGAGTGCGCTGACCATCCAGG
DNA 2: CCTGGATGGTCAGCGCACTCTTGCCCAACCGTCGGCGCCCACCACCACCAGCTTATATTCCGTGAATT
  binding result: binds
